B1: EYFP^C-CsACD2 (other)
chain: MAVNHLCQWQYLRFQLSHPSAPACRYLSPSRPKSSTSSTAKVNCSAAPSSSPMDSHNEGRKKFMEFPYASGPVRQLMVDLVSTVENTLDSQLLPCTLPPDVQYYENQNGTAQASLQIRSGLKSSLIDFILGSWVHSELPTGAALNITSLSAYLNSSTDAPNLLIELIQSSPTSLVLILDLPPRKDLVLHPDYLHTFYESTRLDEYRQMLEKVPEVRPYFSSSLYLRCVVSPSAIMVRVDTETETGAGESTRLDYIITNHVHPVAKQVIGIWLNQCACGGRHVGESDKAYLEKRDGLIKNKTIEIDLGSSFPRLFGPQVASRVLGEIQKVFTA
notes: not shown: C-terminal fragment of EYFP (pSAT6-cEYFP-C1-B) and its linker
B2: CsACD2-EYFP^N (other)
chain: B1 chain
notes: not shown: N-terminal fragment of EYFP (pSAT6-nEYFP-C1) and its linker

Assays:
[1] = molecular target: SDE15-EYFP^N ([…]_04025 without signal peptide fused to the N-terminal fragment of EYFP) (Ca. liberibacter asiaticus); assay: BiFC in citrus leaf protoplasts (FIG. 10B)
EYFP^C-CsACD2 = molecular target: B1; assay: BiFC in citrus leaf protoplasts
[2] = molecular target: EYFP^C-SDE15 ([…]_04025 without signal peptide fused to the C-terminal fragment of EYFP) (Ca. liberibacter asiaticus); assay: BiFC in citrus leaf protoplasts (FIG. 10B)

B1: binds [1].

B2: no binding (EYFP^C-CsACD2); binds [2].
